Laboratory results published in patent publication US20240043568A1 (KEYMED BIOSCIENCES, published 2024).

Key:
[1] = molecular target: T1, FcγRIIIAV158 with His tag (UniProt P08637 17-208); assay: SPR, His-tagged FcγRIIIAV158 captured by anti-His antibody on the chip, antibody as analyte [row FcγRIIIAV158, column GPC3×CD3 κλ002]
T1 construct: Bought protein; also called FcγRIIIAV158 (Sino Biological #10389-H08H1)
Experimental: (§1) 50 μg/mL His-Tag antibodies were conjugated to a CMS chip through amino groups, and recombinant proteins FcγRI, FcγRIIAH131, and FcγRIIIAV158 with His tags (Sino Biological, #10256-H08H/10374-H08H1/10389-H08H1) were respectively captured for a capture time of 40 s at a flow rate of 10 μL/min. After the baseline was stable, the gradient-diluted antibody (the initial concentration of 37.5 μg/mL, 2-fold dilution) flowed through the chip at a flow rate of 30 μL/min, with a binding time of 120 s and a dissociation time of 200 s. The affinity constants were obtained by fitting them with Biacore evaluation software. It can be seen from FIG. 22 that the GPC3×CD3κλ bispecific antibody has no binding to FcγRI, FcγRIIAH131, and FcγRIIIAV158; The wild-type IgG4 control antibody can bind to FcγRI with high affinity and weakly bind to Fcγ RIIAH131.

FcγRI with His tag = molecular target: T2, FcγRI with His tag (UniProt P12314 16-288); assay: SPR, His-tagged FcγRI captured by anti-His antibody on the chip, antibody as analyte [row FcγRI, column GPC3×CD3 κλ003]
T2 construct: Bought protein; also called FcγRI (Sino Biological #10256-H08H)
T2 sequence (P12314 16-288 limits assumed): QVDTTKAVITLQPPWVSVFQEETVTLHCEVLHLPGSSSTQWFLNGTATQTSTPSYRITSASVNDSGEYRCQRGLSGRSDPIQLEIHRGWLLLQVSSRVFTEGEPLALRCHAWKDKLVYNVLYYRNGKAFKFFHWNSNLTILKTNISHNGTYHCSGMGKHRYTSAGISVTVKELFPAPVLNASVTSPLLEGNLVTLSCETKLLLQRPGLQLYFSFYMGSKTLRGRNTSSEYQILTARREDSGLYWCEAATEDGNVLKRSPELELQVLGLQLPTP
Experimental: as §1

FcγRIIAH131 with His tag = molecular target: T3, FcγRIIAH131 with His tag (UniProt P12318 34-218); assay: SPR, His-tagged FcγRIIAH131 captured by anti-His antibody on the chip, antibody as analyte [row FcγRIIAH131, column GPC3×CD3 κλ003]
T3 construct: Bought protein; also called Fcγ RIIAH131 (Sino Biological #10374-H08H1)
T3 sequence (looked up): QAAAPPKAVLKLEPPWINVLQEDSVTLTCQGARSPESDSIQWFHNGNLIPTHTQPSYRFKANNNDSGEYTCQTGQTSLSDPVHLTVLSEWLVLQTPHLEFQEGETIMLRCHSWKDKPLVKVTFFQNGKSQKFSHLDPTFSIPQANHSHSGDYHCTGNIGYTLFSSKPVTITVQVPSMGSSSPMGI
Experimental: as §1

T1 sequence (P08637 17-208 F176V limits assumed): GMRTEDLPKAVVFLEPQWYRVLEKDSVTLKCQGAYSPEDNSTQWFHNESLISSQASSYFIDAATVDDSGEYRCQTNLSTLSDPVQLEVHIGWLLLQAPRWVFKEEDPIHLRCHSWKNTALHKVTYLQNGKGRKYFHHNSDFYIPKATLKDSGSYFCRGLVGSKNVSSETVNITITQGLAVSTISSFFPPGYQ

| Binder | binding result [1] | binding result (FcγRI with His tag) | binding result (FcγRIIAH131 with His tag) |
| --- | --- | --- | --- |
| GPC3×CD3 κλ002 (bispecific antibody, human IgG4 S228P, kappa, lambda, also called GPC3 x CD3 κλ002; GPC3×CD3κλ bispecific antibody) light 1: DVVMTQSPLSLPVTPGEPASISCRSSQSIVHSNGNTYLEWYLKKPGQSPQLLIYKVSNRFSGVPDRFSGSGSGTDFTLKISRVEAEDVGVYFCLQVTHVPLTFGQGTKLEIKRTVAAPSVFIFPPSDEQLKSGTASVVCLLNNFYPREAKVQWKVDNALQSGNSQESVTEQDSKDSTYSLSSTLTLSKADYEKHKVYACEVTHQGLSSPVTKSFNRGEC heavy 1: QVQLVQSGAEVKKPGSSVKVSCKASGYTFADYEIHWVREAPGQGLEWMGAIHPGSGGTAYAQKFQGRVTLTADESSTTAYMELSSLRSEDTAVYYCTRYYSFAYWGQGTLVTVSSASTKGPSVFPLAPCSRSTSESTAALGCLVKDYFPEPVTVSWNSGALTSGVHTFPAVLQSSGLYSLSSVVTVPSSSLGTKTYTCNVDHKPSNTKVDKRVESKYGPPCPPCPAPEFEGGPSVFLFPPKPKDTLMISRTPEVTCVVVDVSQEDPEVQFNWYVDGVEVHNAKTKPREEQFNSTYRVVSVLTVLHQDWLNGKEYKCKVSNKGLASSIEKTISKAKGQPREPQVCTLPPSQEEMTKNQVSLSCAVKGFYPSDIAVEWESNGQPENNYKTTPPVLDSDGSFFLVSKLTVDKSRWQEGNVFSCSVMHEALHNHYTQKSLSLSLGK light 2: QAVVTQEPSLTVSPGGTVTLTCRSSTGAVTTSNYANWVQEKPGQAPRGLIGGTNKRAPWTPARFSGSLLGGKAALTITGAQAEDEAEYYCVLWYSNLWVFGGGTKLTVLGQPKAAPSVTLFPPSSEELQANKATLVCLISDFYPGAVTVAWKADSSPVKAGVETTTPSKQSNNKYAASSYLSLTPEQWKSHRSYSCQVTHEGSTVEKTVAPTECS heavy 2: EVQLVESGGGLVQPGGSLRLSCAASGFTFNTYAMNWVRKAPGKGLEWVGRIRSKYNNYATYYADSVKDRFTISRDDSKNSLYLQMNSLKTEDTAVYYCVRHGNFGNSYVSWFAYWGQGTLVTVSSASTKGPSVFPLAPCSRSTSESTAALGCLVKDYFPEPVTVSWNSGALTSGVHTFPAVLQSSGLYSLSSVVTVPSSSLGTKTYTCNVDHKPSNTKVDKRVESKYGPPCPPCPAPEFEGGPSVFLFPPKPKDTLMISRTPEVTCVVVDVSQEDPEVQFNWYVDGVEVHNAKTKPREEQFNSTYRVVSVLTVLHQDWLNGKEYKCKVSNKGLASSIEKTISKAKGQPREPQVYTLPPCQEEMTKNQVSLWCLVKGFYPSDIAVEWESNGQPENNYKTTPPVLDSDGSFFLYSKLTVDKSRWQEGNVFSCSVMHEALHNHYTQKSLSLSLGK | no binding | – | – |
| GPC3×CD3 κλ003 (bispecific antibody, human IgG4 S228P, kappa, lambda, also called GPC3 x CD3 κλ003; GPC3×CD3κλ bispecific antibody) light 1: DVVMTQSPLSLPVTPGEPASISCRSSQSIVHSNGNTYLEWYLKKPGQSPQLLIYKVSNRFSGVPDRFSGSGSGTDFTLKISRVEAEDVGVYFCLQVTHVPLTFGQGTKLEIKRTVAAPSVFIFPPSDKKLKSGTASVVCLLNNFYPREAKVQWKVDNALQSGNSQESVTEQDSKDSTYSLSSTLTLSKADYEKHKVYACEVTHQGLSSPVTKSFNRGEC heavy 1: QVQLVQSGAEVKKPGSSVKVSCKASGYTFADYEIHWVREAPGQGLEWMGAIHPGSGGTAYAQKFQGRVTLTADESSTTAYMELSSLRSEDTAVYYCTRYYSFAYWGQGTLVTVSSASTKGPSVFPLAPCSRSTSESTAALGCLVEDYFPEPVTVSWNSGALTSGVHTFPAVLQSSGLYSLSSVVTVPSSSLGTKTYTCNVDHKPSNTKVDERVESKYGPPCPPCPAPEFEGGPSVFLFPPKPKDTLMISRTPEVTCVVVDVSQEDPEVQFNWYVDGVEVHNAKTKPREEQFNSTYRVVSVLTVLHQDWLNGKEYKCKVSNKGLASSIEKTISKAKGQPREPQVCTLPPSQEEMTKNQVSLSCAVKGFYPSDIAVEWESNGQPENNYKTTPPVLDSDGSFFLVSKLTVDKSRWQEGNVFSCSVMHEALHNHYTQKSLSLSLGK light 2: QAVVTQEPSLTVSPGGTVTLTCRSSTGAVTTSNYANWVQEKPGQAPRGLIGGTNKRAPWTPARFSGSLLGGKAALTITGAQAEDEAEYYCVLWYSNLWVFGGGTKLTVLGQPKAAPSVTLFPPSSEELQANKATLVCLISDFYPGAVTVAWKADSSPVKAGVETTTPSKQSNNKYAASSYLSLTPEQWKSHRSYSCQVTHEGSTVEKTVAPTECS heavy 2: EVQLVESGGGLVQPGGSLRLSCAASGFTFNTYAMNWVRKAPGKGLEWVGRIRSKYNNYATYYADSVKDRFTISRDDSKNSLYLQMNSLKTEDTAVYYCVRHGNFGNSYVSWFAYWGQGTLVTVSSASTKGPSVFPLAPCSRSTSESTAALGCLVKDYFPEPVTVSWNSGALTSGVHTFPAVLQSSGLYSLSSVVTVPSSSLGTKTYTCNVDHKPSNTKVDKRVESKYGPPCPPCPAPEFEGGPSVFLFPPKPKDTLMISRTPEVTCVVVDVSQEDPEVQFNWYVDGVEVHNAKTKPREEQFNSTYRVVSVLTVLHQDWLNGKEYKCKVSNKGLASSIEKTISKAKGQPREPQVYTLPPCQEEMTKNQVSLWCLVKGFYPSDIAVEWESNGQPENNYKTTPPVLDSDGSFFLYSKLTVDKSRWQEGNVFSCSVMHEALHNHYTQKSLSLSLGK | – | no binding | no binding |
